Paper PMC8578620 (Nature Communications, 2021)

Target: CAP256.wk34.c80 SOSIP.RnS2 Env trimer containing the native N160 glycan site (HIV-1 clade C, CAP256.wk34.c80 …, stabilised)

B1: 2G12 (antibody, V domains shown)
VH: EVQLVESGGGLVKAGGSLILSCGVSNFRISAHTMNWVRRVPGGGLEWVASISTSSTYRDYADAVKGRFTVSRDDLEDFVYLQMHKMRVEDTAIYYCARKGSDRLSDNDPFDAWGPGTVVTVSP
VL: VVMTQSPSTLSASVGDTITITCRASQSIETWLAWYQQKPGKAPKLLIYKASTLKTGVPSRFSGSGSGTEFTLTISGLQFDDFATYHCQHYAGYSATFGQGTRVEIK
binding result: binds
